Results as given in patent US20020119121A1, “Compositions and methods for inducing specific cytolytic T cell responses” (priority 2000, published 2002).

Experiments:
[1] = tested on: JY (A2+) and 221 (A2-) 51Cr-labeled target cells
[2] = tested on: class I molecules, TAP transporters, PA28, immunoproteasomes in monocytes/DC; assay: Expression of class I molecules, TAP transporters, PA28 and immunoproteasomes by flow cytometry and immunoprecipitation; format: cell-based, human; conditions: treatment of immature DC
Description: To determine if the differences observed between DC treated with LPS, TNF-α, or CD40L in inducing CTL activity of CD8^+ T cells were due to differences in antigen processing and presentation capacity of monocytes, immature DC, and mature DC, the expression levels of class I molecules, TAP transporters, PA28 (an immunoproteasome regulator), and immunoproteasomes were examined by flow cytometry (FACScan, Benton Dickenson, Milano, Italy) and immunoprecipitation with appropriate antibodies. […] The level of expression of class I molecules was further increased by two fold upon treatment with LPS, CD40L, or TNF-α.

[3] = tested on: JY (A2+) and 221 (A2-) 51Cr-labeled target cells; assay: 51Cr-release assay of HLA-A2 specific CTL activity induced in purified CD8+ TL by dendritic cells
[4] = tested on: 51Cr-labeled recipient LB; assay: Inhibition of LB-directed cytotoxicity by granule exocytosis pathway blockers; conditions: CMA 1, 10, 100 nM/L for 2 h or SrCl2 5, 25, 50 mM/L for 18 h; one mean given for either reagent; FIG. 5 E:T 5:1
Description: Cytolytic activity of a CTL refers to the secretion of the contents of secretory granules into the immediate vicinity of the target cell to which it attaches. The granules contain perforins, various lysosomal enzymes, and calcium binding proteins that destroy the target cell.

## IL-4: lymphokine added to the CTL induction culture
[1]
  effect of addition on cytotoxic activity: no effect

## lipopolysaccharide [LPS]
[2]
  further increase of expression of class I molecules: two fold
[3]; DC treated with LPS 20 ng/ml, TNF-α 20 ng/ml (40 h) or irradiated CD40L-transfected cells, FIG. 1A
  induction of cytotoxic activity from purified CD8+ T cells by treated DC: only CD40L treated DC were capable of inducing cytotoxic activity

## C/C=C/[C@H]1O[C@@](O)([C@@H](C)[C@H](O)[C@H](C)[C@H]2OC(=O)/C(OC)=C/C(C)=C/[C@@H](C)[C@@H](O)[C@@H](CC)[C@@H](O)[C@H](C)C/C(C)=C/C=C/[C@@H]2OC)C[C@@H](O[C@H]2C[C@@H](O)[C@H](OC(N)=O)[C@@H](C)O2)[C@@H]1C [CMA, concanamycin A]
[4]
  mean inhibition of LB-directed cytotoxicity: 87%

## tumor necrosis factor-α [TNF-α]
[2]
  further increase of expression of class I molecules: two fold

## IL-12: cytokine interleukin-12
[1]
  substitution for CD40L in inducing cytotoxic activity: two of the four

## IL-6: lymphokine added to the CTL induction culture
[1]
  effect of addition on cytotoxic activity: no effect

## IL-7: cytokine interleukin-7
[1]
  effect on cytotoxic activity induced by immature DC: no effect
  enhancement of cytotoxic activity: approximately three fold

B1: CD40L: CD40 Ligand, supplied as irradiated CD40L-transfected cells added to immature DC; dendritic cell maturation factor (protein, UniProt P29965 1-261, looked up)
chain: MIETYNQTSPRSAATGLPISMKIFMYLLTVFLITQMIGSALFAVYLHRRLDKIEDERNLHEDFVFMKTIQRCNTGERSLSLLNCEEIKSQFEGFVKDIMLNKEETKKENSFEMQKGDQNPQIAAHVISEASSKTTSVLQWAEKGYYTMSNNLVTLENGKQLTVKRQGLYYIYAQVTFCSNREASSQAPFIASLCLKSPGRFERILLRAANTHSSAKPCGQQSIHLGGVFELQPGASVFVNVTDPSQVSHGTGFTSFGLLKL
modifications: full-length expressed on irradiated transfected cells
notes: CD40 Ligand, supplied as irradiated CD40L-transfected cells added to immature DC; dendritic cell maturation factor
[2]
  further increase of expression of class I molecules: two fold
[3]; CD40L-treated DC, four CD8+ populations tested
  CD8+ cell populations in which CTL activity was detected: three of the four
